This note sets out measurements from patent CN101123983A (MEDIMMUNE INC, dated 2008).

In experiment [1] the target is T1, 人EphA4-His融合蛋白 (human EphA4 extracellular domain fused to a histidine tag) (human, UniProt P54764 20-547).
T1 construct: also called rhuEphA4-His; not shown: histidine tag
The experiment in a line: secondary screen of combination variant Fabs: activity ELISA on coated human EphA4-His, normalised by Fab quantitation ELISA.

The target in experiment [2] is T1, 人EphA4-His融合蛋白 (human EphA4 …). As to the kind of experiment: secondary screen: activity ELISA on coated human EphA4-His, normalised by Fab quantitation ELISA, against parent Fab20. Background: An ELISA detects its analyte on a solid surface through an enzyme-linked reagent.

T1 sequence (P54764 20-547): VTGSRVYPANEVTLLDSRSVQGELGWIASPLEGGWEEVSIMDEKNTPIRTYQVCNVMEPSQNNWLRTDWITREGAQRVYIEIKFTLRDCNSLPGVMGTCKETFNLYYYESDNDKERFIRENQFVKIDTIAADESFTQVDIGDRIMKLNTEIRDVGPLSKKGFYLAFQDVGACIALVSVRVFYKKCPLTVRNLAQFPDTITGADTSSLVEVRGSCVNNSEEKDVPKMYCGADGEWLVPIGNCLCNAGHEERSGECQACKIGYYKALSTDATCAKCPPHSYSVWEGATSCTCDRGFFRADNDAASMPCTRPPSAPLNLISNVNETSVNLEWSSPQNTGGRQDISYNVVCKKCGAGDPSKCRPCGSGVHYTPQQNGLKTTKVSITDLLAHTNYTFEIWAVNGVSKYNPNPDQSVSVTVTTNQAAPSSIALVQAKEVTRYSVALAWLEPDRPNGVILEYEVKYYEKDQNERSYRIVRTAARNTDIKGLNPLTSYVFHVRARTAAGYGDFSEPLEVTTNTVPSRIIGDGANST

B1: 6B7 (Fab, V domains shown)
VH: QVQLLQSGAEVKKPGASVKVPCKASGYTFTSRAMSWVRQAPGQGLEWMGWINTNTGNPTYAQGFTGRFVFSLDTSVSTAYLQISSLKAEDTAVYYCARVRFTVYGDGMDVWGQGTLVTVSS
VL: EIVLTQSPATLSVSPGERATLSCRASQSVSSNPAWYQQKPGQAPRLLIYGASTRATGIPDRFSASGSGTDFTLTISRVEPEDFAVYYCQQYGPSWTFGQGTKVEIK
As to B1, the binding result in experiment [1] is recorded as “binds”.

B2: 1G11 (Fab, V domains shown)
VH: QVQLLQSGAEVKKPGASVKVPCKASGYTFTSRAMSWVRQAPGQGLEWMGWINTNTGNPTYAQGFTGRFVFSLDTSVSTAYLQISSLKAEDTAVYYCARVRFTVYGDGMDVWGQGTLVTVSS
VL: EIVLTQSPATLSVSPGERATLSCRASQSVSSNLPWYQQKPGQAPRLLIYGASTRPTGIPDRFSASGSGTDFTLTISRVEPEDFAVYYCQQYGPSWTFGQGTKVEIK
In the case of B2, the binding result in experiment [1] is reported as “binds”.

B3: 11H1 (Fab, V domains shown)
VH: QVQLLQSGAEVKKPGASVKVPCKASGYTFTSYAMSWVRQAPGQGLEWMGWINTNTGNPTYAQGFTGRFVFSLDTSVSTAYLQISSLKAEDTAVYYCARVRLTVYGDGMDVWGQGTLVTVSS
VL: EIVLTQSPATLSVSPGERATLSCRASQSVSSNLAWYQQKPGQAPRLLIYGASTRATGIPDRFSASGSGTDFTLTISRVEPEDFAVYYCQQYGSSWTFGQGTKVEIK
notes: Fab with human gamma1 CH1 and human kappa constant domain; also called GEA44衍生物11H1
With B3, in experiment [2], the binding result was “binds”.

B4: 1D11 (Fab, V domains shown)
VH: QVQLLQSGAEVKKPGASVKVPCKASGYTFTSRAMSWVRQAPGQGLEWMGWINTNTGNPTYAQGFTGRFVFSLDTSVSTAYLQISSLKAEDTAVYYCARVRTTVYGDNMDVWGQGTLVTVSS
VL: EIVLTQSPATLSVSPGERATLSCRASQSVSSNLPWYQQKPGQAPRLLIYGASTRATGIPDRFSASGSGTDFTLTISRVEPEDFAVYYCQQYGPSWTFGQGTKVEIK
With B4, the binding result in experiment [1] is given as “binds”.

B5: 1B10 (Fab, V domains shown)
VH: QVQLLQSGAEVKKPGASVKVPCKASGYTFTSRAMSWVRQAPGQGLEWMGWINTNTGNPTYAQGFTGRFVFSLDTSVSTAYLQISSLKAEDTAVYYCARVRFTVYGDGMDVWGQGTLVTVSS
VL: EIVLTQSPATLSVSPGERATLSCRASQSVSSNPAWYQQKPGQAPRLLIYGASTWATGIPDRFSASGSGTDFTLTISRVEPEDFAVYYCQQYGPSWTFGQGTKVEIK
Regarding B5, in experiment [1], the binding result was “binds”.

B6: 1A4 (Fab, V domains shown)
VH: QVQLLQSGAEVKKPGASVKVPCKASGYTFTSRAMSWVRQAPGQGLEWMGWINTNTGNPTYAQGSTGRFVFSLDTSVSTAYLQISSLKAEDTAVYYCARVRFTVYGDGMDVWGQGTLVTVSS
VL: EIVLTQSPATLSVSPGERATLSCRASQSVSSNPAWYQQKPGQAPRLLIYGASTRATGIPDRFSASGSGTDFTLTISRVEPEDFAVYYCQQYGPSWTFGQGTKVEIK
In the case of B6, the binding result in experiment [1] is recorded as “binds”.

B7: 3A12 (Fab, V domains shown)
VH: QVQLLQSGAEVKKPGASVKVPCKASGYTFTSRAMSWVRQAPGQGLEWMGWINTNTGNPTYAQGFTGRFVFSLDTSVSTAYLQISSLKAEDTAVYYCARVRFTVYGDGMDVWGQGTLVTVSS
VL: EIVLTQSPATLSVSPGERATLSCRASQSVSSNLAWYQQKPGQAPRLLIYGASTWATGIPDRFSASGSGTDFTLTISRVEPEDFAVYYCQQYGPSWTFGQGTKVEIK
With B7, the binding result in experiment [1] is given as “binds”.

B8: 3C6 (Fab, V domains shown)
VH: QVQLLQSGAEVKKPGASVKVPCKASGYTFTSRAMSWVRQAPGQGLEWMGWINTNTGNPTYAQGFTGRFVFSLDTSVSTAYLQISSLKAEDTAVYYCARVRLTVYGDGMDVWGQGTLVTVSS
VL: EIVLTQSPATLSVSPGERATLSCRASQSVSSNPPWYQQKPGQAPRLLIYGASTRATGIPDRFSASGSGTDFTLTISRVEPEDFAVYYCQQYGSSWTFGQGTKVEIK
For B8, in experiment [1], the binding result is on record as “binds”.
